Key:
hIno80CTD (human) [1] = test: MST; conditions: Hill coefficient 1.8 +/- 0.2, MST: 25 mM HEPES pH 8.0, 50 mM NaCl, 1 mM TCEP, 10% glycerol, 0.01% Tween-20, 0.1 mg/mL BSA, 25 C, EMSA: 25 mM HEPES pH 8.0, 50 mM NaCl, 0.5 mM …
hIno80CTD (human) [2] = test: EMSA; conditions: Kd apparent, 50 nM DNA, MST: 25 mM HEPES pH 8.0, 50 mM NaCl, 1 mM TCEP, 10% glycerol, 0.01% Tween-20, 0.1 mg/mL BSA, 25 C, EMSA: 25 mM HEPES pH 8.0, 50 mM NaCl, 0.5 mM …

Substance: 50 bp duplex DNA
- K half (hIno80CTD (human) [1]): 1000 nM
- Kd (hIno80CTD (human) [2]): 1000 nM

— PMC5472440
